# Measured values from the supplement of paper PMC7877785.
# ± gives the uncertainty stated by the source.
# Experiment: self-splicing fitness, log relative to wild type (ln ratio); higher = more splicing; Tetrahymena group I intron in knt gene, E. coli kanamycin selection, DiMSum; sequences stand for … in CUCUCU…GGAGGGAAAAGUUAUCAGGCAUGCACCUGGUAGCUAGUCUUUAAACCAAUAGAUUGCAUCGGUUUAAAAGGCAAGACCGUCAAAUUGCGGGAAAGGGGUCAACAGCCGUUCAGUACCAAGUCUCAGGGGAAACUUUGAGAUGGCCUUGCAAAGGGUAUGGUAAUAAGCUGACGGACAUGGUCCUAACCACGCAGCCAAGUCCUAAGUCAACAGAUCUUCUGUUGAUAUGGAUGCAGUUCACAGACUAAAUGUCGGUCGGGGAAGAUGUAUUCUUCUCAUAAGAUAUAGUCGGACCUCUCCUUAAUGGGAGCUAGCGGAUGAAGUGAUGCAACACUGGAGCCGCUGGGAACUAAUUUGUAUGCGAAAGUAUAUUGAUUAGUUUUGGAGUACUCGUGGUCG
# Outline: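 Library with all eight P1ex-region intron nucleotides randomised, intron inside the knt kanamycin-resistance gene on pET-22b(+), in E. coli BL21(DE3). Cells grew overnight at 37°C or 30°C on LB agar with or without 25 μg/mL kanamycin (plus 100 μg/mL carbenicillin, 50 μM IPTG, 0.2% rhamnose), in six replicate transformations. Pooled colonies were amplicon-sequenced on Illumina HiSeq 2500. DiMSum fitness is the error-weighted combination of wild-type-normalised replicate fold changes, kanamycin versus none.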
Sequence,self-splicing fitness (ln) (30 °C),self-splicing fitness (ln) (37 °C)
UUACAGCAAUAUUACGCACU,-0.534 ± 0.12,-0.572 ± 0.14
UUACAGCAAUAUUACGCAUU,-2.73 ± 0.17,-1.52 ± 0.14
UUACAGCAAUAUUACGCCUA,0.181 ± 0.11,0.542 ± 0.12
UUACAGCAAUAUUACGCUUG,-1.23 ± 0.12,-0.126 ± 0.13
UUACAGCAAUAUUACGGAAA,-1.42 ± 0.14,-0.561 ± 0.14
UUACAGCAAUAUUACGGACC,-3.25 ± 0.4,-1.41 ± 0.32
UUACAGCAAUAUUACGGCAU,-2.01 ± 0.074,-0.552 ± 0.087
UUACAGCAAUAUUACGGCUU,-1.13 ± 0.082,-1.35 ± 0.1
UUACAGCAAUAUUACGGGGA,-0.473 ± 0.076,-0.871 ± 0.089
UUACAGCAAUAUUACGGGGC,-3.36 ± 0.48,-1.17 ± 0.45
UUACAGCAAUAUUACGGGUC,-3.67 ± 0.19,-2.51 ± 0.15
UUACAGCAAUAUUACGGUUC,-1.97 ± 0.1,-1.32 ± 0.11
UUACAGCAAUAUUACGGUUU,-0.925 ± 0.046,0.136 ± 0.066
UUACAGCAAUAUUACGUGUU,-3.43 ± 0.14,-2.13 ± 0.13
UUACAGCAAUAUUACGUUUA,-1.3 ± 0.11,-0.512 ± 0.12
UUAGAGCAAUAUUACGAGGA,-2.99 ± 0.34,-0.578 ± 0.32
UUAGAGCAAUAUUACGAUAA,-0.0105 ± 0.13,0.418 ± 0.18
UUAGAGCAAUAUUACGAUAU,-1.72 ± 0.18,-1.54 ± 0.23
UUAGAGCAAUAUUACGCCUA,-0.268 ± 0.13,-0.0554 ± 0.19
UUAGAGCAAUAUUACGCGGC,,-0.994 ± 0.26
UUAGAGCAAUAUUACGGAUG,-3.13 ± 0.19,-0.15 ± 0.15
UUAGAGCAAUAUUACGGCAU,-2.51 ± 0.28,-1.16 ± 0.23
UUAGAGCAAUAUUACGGGAA,-2.25 ± 0.16,-0.296 ± 0.16
UUAGAGCAAUAUUACGGGGC,-3.24 ± 0.44,
UUAGAGCAAUAUUACGGUCA,-1.7 ± 0.15,-1.34 ± 0.14

Sequence,self-splicing fitness (ln) (30 °C),self-splicing fitness (ln) (37 °C)
UUAGAGCAAUAUUACGUAAA,-2.69 ± 0.17,0.396 ± 0.13
UUAGAGCAAUAUUACGUACA,-1.7 ± 0.26,-1.51 ± 0.33
UUAGAGCAAUAUUACGUACG,-0.844 ± 0.11,-1.06 ± 0.17
UUAGAGCAAUAUUACGUGUA,-3.04 ± 0.18,-1.83 ± 0.17
UUAGAGCAAUAUUACGUUAA,-1.9 ± 0.13,-0.197 ± 0.15
UUAUAGCAAUAUUACGAAGG,-3.25 ± 0.39,-1.67 ± 0.33
UUAUAGCAAUAUUACGAUGA,-0.778 ± 0.12,0.516 ± 0.14
UUAUAGCAAUAUUACGCAAA,-2.85 ± 0.22,-1.51 ± 0.16
UUAUAGCAAUAUUACGCAGA,-2.06 ± 0.14,-1.25 ± 0.099
UUAUAGCAAUAUUACGCAGU,,-1.61 ± 0.33
UUAUAGCAAUAUUACGCCUC,-2.77 ± 0.39,-1.59 ± 0.3
UUAUAGCAAUAUUACGGACG,-1.25 ± 0.38,-0.128 ± 0.34
UUAUAGCAAUAUUACGGACU,-2.04 ± 0.35,-0.965 ± 0.23
UUAUAGCAAUAUUACGGGGU,-2.93 ± 0.28,-2.15 ± 0.31
UUAUAGCAAUAUUACGUCGA,-0.277 ± 0.13,-0.308 ± 0.15
UUAUAGCAAUAUUACGUCGG,-1.58 ± 0.27,-0.309 ± 0.24
UUAUAGCAAUAUUACGUGGA,-2.5 ± 0.41,-1.23 ± 0.22
UUAUAGCAAUAUUACGUGUU,-4.16 ± 0.33,-3.11 ± 0.33
UUAUAGCAAUAUUACGUUCC,,-2.09 ± 0.48
UUCAAGCAAUAUUACGACCG,-1.29 ± 0.14,0.147 ± 0.18
UUCAAGCAAUAUUACGACUG,-2.38 ± 0.15,-1.33 ± 0.12
UUCAAGCAAUAUUACGAGCA,-1.01 ± 0.1,-0.0614 ± 0.12
UUCAAGCAAUAUUACGAGCC,-2.64 ± 0.32,
UUCAAGCAAUAUUACGAUAG,-1.81 ± 0.14,-0.986 ± 0.17
UUCAAGCAAUAUUACGAUUA,-0.129 ± 0.08,0.183 ± 0.081

Sequence,self-splicing fitness (ln) (30 °C),self-splicing fitness (ln) (37 °C)
UUCAAGCAAUAUUACGCACG,-1.11 ± 0.11,-0.411 ± 0.14
UUCAAGCAAUAUUACGCCCG,-1.16 ± 0.1,-0.594 ± 0.15
UUCAAGCAAUAUUACGCCCU,-1.34 ± 0.14,-0.18 ± 0.16
UUCAAGCAAUAUUACGCCUA,0.0224 ± 0.061,0.182 ± 0.077
UUCAAGCAAUAUUACGCGGU,-2.91 ± 0.17,-1.96 ± 0.17
UUCAAGCAAUAUUACGCUCC,-1.54 ± 0.16,-1.86 ± 0.24
UUCAAGCAAUAUUACGGCAG,-1.05 ± 0.077,-0.45 ± 0.11
UUCAAGCAAUAUUACGGCCG,-0.747 ± 0.14,0.0541 ± 0.16
UUCAAGCAAUAUUACGGCUU,-2.58 ± 0.14,-1.16 ± 0.14
UUCAAGCAAUAUUACGGGAA,-1.32 ± 0.11,-0.286 ± 0.094
UUCAAGCAAUAUUACGGGUC,-4.54 ± 0.32,-1.53 ± 0.14
UUCAAGCAAUAUUACGUCAC,-3.57 ± 0.34,-2.42 ± 0.39
UUCAAGCAAUAUUACGUCGG,-0.722 ± 0.067,-0.516 ± 0.081
UUCAAGCAAUAUUACGUGAC,-4.47 ± 0.39,-2.69 ± 0.27
UUCAAGCAAUAUUACGUGAG,-0.36 ± 0.071,0.0932 ± 0.088
UUCAAGCAAUAUUACGUGGA,-2.17 ± 0.17,-2.52 ± 0.15
UUCCAGCAAUAUUACGAGAG,-1.82 ± 0.093,-0.571 ± 0.13
UUCCAGCAAUAUUACGAGCG,-1.6 ± 0.096,-1.26 ± 0.1
UUCCAGCAAUAUUACGAGGC,-3.72 ± 0.35,-2.58 ± 0.27
UUCCAGCAAUAUUACGAUCC,-1.46 ± 0.45,
UUCCAGCAAUAUUACGAUUA,-0.297 ± 0.12,-0.0509 ± 0.1
UUCCAGCAAUAUUACGCAAC,-3.02 ± 0.44,
UUCCAGCAAUAUUACGCAAU,-2.02 ± 0.17,-1.31 ± 0.14
UUCCAGCAAUAUUACGCGAA,-1.64 ± 0.079,-0.865 ± 0.089
UUCCAGCAAUAUUACGGAUC,-3.83 ± 0.35,-1.75 ± 0.16

Sequence,self-splicing fitness (ln) (30 °C),self-splicing fitness (ln) (37 °C)
UUCCAGCAAUAUUACGGGAA,-2.87 ± 0.35,-2.84 ± 0.34
UUCCAGCAAUAUUACGGGAU,-3.25 ± 0.11,-3.13 ± 0.19
UUCCAGCAAUAUUACGGUAG,-0.0875 ± 0.065,0.438 ± 0.079
UUCCAGCAAUAUUACGGUCU,-2.54 ± 0.33,-2.13 ± 0.3
UUCCAGCAAUAUUACGGUGU,-1.19 ± 0.092,-1.1 ± 0.13
UUCCAGCAAUAUUACGUGAG,0.114 ± 0.062,0.597 ± 0.08
UUCCAGCAAUAUUACGUUAG,-2.57 ± 0.17,-0.904 ± 0.16
UUCGAGCAAUAUUACGAAGC,-2.63 ± 0.33,-1.91 ± 0.36
UUCGAGCAAUAUUACGACAU,-3.097 ± 0.026,-1.94 ± 0.038
UUCGAGCAAUAUUACGACGA,-0.356 ± 0.3,-0.0591 ± 0.21
UUCGAGCAAUAUUACGAGCG,-3.41 ± 0.4,-1.47 ± 0.2
UUCGAGCAAUAUUACGAUGA,-0.824 ± 0.12,-0.0637 ± 0.1
UUCGAGCAAUAUUACGCCAC,,-1.4 ± 0.46
UUCGAGCAAUAUUACGCCGG,-1.98 ± 0.39,
UUCGAGCAAUAUUACGGAAU,-3.13 ± 0.18,-2.87 ± 0.27
UUCGAGCAAUAUUACGGAGA,-1.63 ± 0.22,-1.38 ± 0.22
UUCGAGCAAUAUUACGGGAU,-3.04 ± 0.25,-2.05 ± 0.19
UUCGAGCAAUAUUACGGGGC,-2.86 ± 0.27,-1.48 ± 0.4
UUCGAGCAAUAUUACGGUAU,-3.95 ± 0.22,-2.22 ± 0.23
UUCGAGCAAUAUUACGGUCA,-1.71 ± 0.15,-1.26 ± 0.13
UUCGAGCAAUAUUACGGUCG,,-1.91 ± 0.36
UUCGAGCAAUAUUACGUACU,-2.87 ± 0.42,-2.01 ± 0.36
UUCGAGCAAUAUUACGUGAG,-1.12 ± 0.067,-0.0842 ± 0.11
